Molecular target: TAP-tagged human presenilin 1 (human) (UniProt P49768)
Assay: SEC-MALS; TAP-purified PS1 complex on Superdex S-200 10/300 in Tris buffer with 0.1% digitonin; protein and detergent masses by conjugate analysis; complex co-purified from cells

stoichiometry N: 1
Substance: anterior pharynx 1 (aph1) (from UniProt Q96BI3 1-265) (natural protein)

From PMC3887256
